Data: patent US6995249, “Nucleic acid capable of binding specifically to Ras target protein” (Japan Science and Technology Corporation)

These binders were tested against T1, Raf-1 RBD (GST-RBD) (UniProt P04049 P04049:51-131) (assay: filter; group 1; value only in figure; PBS + 5 mM MgCl2, 37 C). Conditions: tags: GST fusion, expressed in E. coli; label: 32P.
Procedure: The interaction between the 10 RNAs among them and GST-RBD was examined by a binding assay using a nitrocellulose filter.
(§1) An RNA (4 nM) of which the 5'-terminus was labeled and 50 to 1,250 nM of GST-RBD were incubated in 600 µl of a binding buffer at 37° C. for 30 minutes. The culture was filtered with a nitrocellulose filter, and the radioactivity on the filter was measured. The Kd value was calculated using a software: Kalleider Graph (Bell, S. D., et al., (1998) J. Biol. Chem. 273, 14309–14314).

Binder	binding result
clone 21.01 (ssRNA) RNA: GGGAGAUCAGAAUAAACGCUCAACUGAUCAAUGGCGUACAAUGGAUUCGUUCUCAUAACCAAAACCCUUACCCCUUGGACUGAUUCGACAUGAGGCCCCUGCAGGGCG	binds
clone 21.07 (ssRNA) RNA: GGGAGAUCAGAAUAAACGCUCAAUUGACUCAAUGGCGUACAAUGGAUUCGUUCUCAUAACCAAAACCCUUACCCCUUGGACUGUUCGACAUGAGGCCCCUGCAGGGCG	binds

What follows are binders tested against T1, Raf-1 RBD (GST-RBD) (assay: filter; PBS + 5 mM MgCl2, 37 C). Conditions: tags: GST fusion, expressed in E. coli; label: 5'-32P.
Procedure: as §1

Binder	Kd
RNA aptamer SEQ ID NO:25 (ssRNA) RNA: GGGAGUGGAGGAAUUCAUCGAGGCAUAUGUCGACUCCGUCUUCCUUCAAACCAGUUAUAAAUUGGUUUUAGCAUAUGCCUUAGCGACAGCAAGCUUCUGC	124 nM
RNA aptamer SEQ ID NO:26 (ssRNA) RNA: GGGAGUGGAGGAAUUCAUCGAGGCAUGACCUCCCGUGGCAGUAGGGGUAAAAAUUAUCUUCCUACACUUCUCAUGCCUUAGCGACAGCAAGCUUCUGC	295 nM
RNA aptamer SEQ ID NO:28 (3'-truncated) (ssRNA) RNA: GGGAGUGGAGGAAUUCAUCGAGGCAUAUGUCGACUCCGUCUUCCUUCAAACCAGUUAUAAAUUGGUUUUAGCAUAUGCCU	176 nM

The binders below were run against T1, Raf-1 RBD (GST-RBD) (assay: filter; group 1; percent bound only in figure). Conditions: tags: GST fusion, expressed in E. coli; label: 32P.

Binder	binding result
clone 21.08 (ssRNA) RNA: GGGAGAUCAGAAUAAACGCUCAAUUGAAGAUCGUACAAUGGAUUCGAUCAUAACCCGAAGUUUUUAAACACUCUUUACCUGUAUUCGACAUGAGGCCCCUGCAGGGCG	binds
clone 21.06 (ssRNA) RNA: GGGAGAUCAGAAUAAACGCUCAACUGAUCAAUGGCGUACAAUGGAUUCGUUCUCAUAACCAAAACCCUUACCCCUUGGACUGUUUCGACAUGAGGCCCCUGCAGGGCG	binds
clone 21.04 (ssRNA) RNA: GGGAGAUCAGAAUAAACGCUCAACUGAUCAAUGGCGUACAAUGGAUUCGCUCUCAUAACCAAAACCCUUACCCCUUGGACUGCUUCGACAUGAGGCCCCUGCAGGGCG	binds
clone 21.05 (ssRNA) RNA: GGGAGAUCAGAAUAAACGCUCAACUGAUCAAUGGCGUACAAUGGAUUCGUUCUCAUAACCAAAACCCUUACUCCUUGGACUGCUUCGACAUGAGGCCCCUGCAGGGCG	binds
clone 21.03 (ssRNA) RNA: GGGAGAUCAGAAUAAACGCUCAACUGAUCAAUGGCGUACAAUGGAUUCGUUCUCAUAACCAAAACCCUUACCCCUUGGACUGCUUCGACAUGAGGCCCCUGCAGGGCG	binds
clone 21.02 (ssRNA) RNA: GGGAGAUCAGAAUAAACGCUCAACUGAUCAAUGGCGUACAAUGGAUUCGUUCUCAUAACCAAAACCCUUACCCCUGGACUGAUUCGACAUGAGGCCCCUGCAGGGCG	binds

What follows are binders tested against T1, Raf-1 RBD (GST-RBD) (assay: filter; scarcely bound; no inhibition of Ras binding at 12.5 uM). Conditions: tags: GST fusion, expressed in E. coli; label: 32P.

Binder	binding result
clone 21.12 (ssRNA) RNA: GGGAGAUCAGAAUAAACGCUCAAGCGACAAGCAGCAGAUAAAGUUGAGCGCAACGCCGCUACAGAACCAAAUUAACAUGUAUGUUCGACAUGAGGCCCCUGCAGGGCG	no binding
